Experimental data published in patent US20100317054A1 (VIRGINIA TECH INTELLECTUAL PROPERTIES, published 2010).

T1: human ICAM-3-Fc chimera (human, UniProt P32942 30-485, limits assumed)
T1 construct: Bought from R&D Systems; soluble immunoadhesin; also called hICAM3-Fc; hICAM-3-Fc; not shown: human IgG Fc (detected with anti-human IgG Fc antibody)
T1 sequence (looked up): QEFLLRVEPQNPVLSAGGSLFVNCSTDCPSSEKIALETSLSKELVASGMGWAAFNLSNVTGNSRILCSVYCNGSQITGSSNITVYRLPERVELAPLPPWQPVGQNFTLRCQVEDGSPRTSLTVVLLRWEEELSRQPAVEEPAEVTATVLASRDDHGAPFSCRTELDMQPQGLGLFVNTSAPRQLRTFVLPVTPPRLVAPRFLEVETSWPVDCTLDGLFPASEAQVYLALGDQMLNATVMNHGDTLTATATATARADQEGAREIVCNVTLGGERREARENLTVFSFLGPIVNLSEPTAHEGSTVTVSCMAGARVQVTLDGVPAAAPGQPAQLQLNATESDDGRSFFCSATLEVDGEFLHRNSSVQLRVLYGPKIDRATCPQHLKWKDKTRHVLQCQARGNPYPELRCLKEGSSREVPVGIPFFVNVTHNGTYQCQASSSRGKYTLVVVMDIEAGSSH

B1: porcine DC-SIGN (receptor)
chain: MAEICDPKEPEEKTWTGPVLVERDLGLLRRLRNSPGCLTWPLLLLLLFVSLGFFMLLVTTLVQVSRIHQSLQRERETSRRPTAQEKIQSSLDKFLQQMTWMNATLAGLCHPCPWHWEFFQGRCYLFSQTQSDWKSSLSACKDIGAQLVIINSTAEQKFLKSWYVRYNKATWIGLSDDTNEGSWQWVDNSPLQLSFWKEGEPNNHGDEDCAELHNDGWNDSKCTVENAWICEKPSSPCPML
notes: In the Western blot it stood in a cell lysate (band of about 48 kDa, probably glycosylated); also called pDC-SIGN; BHK-PDCS (BHK-21 cells stably expressing it)
B2: human ICAM-2-Fc chimera (Fc fusion, UniProt P13598 25-223, looked up)
chain: KVFEVHVRPKKLAVEPKGSLEVNCSTTCNQPEVGGLETSLDKILLDEQAQWKHYLVSNISHDTVLQCHFTCSGKQESMNSNVSVYQPPRQVILTLQPTLVAVGKSFTIECRVPTVEPLDSLTLFLFRGNETLHYETFGKAAPAPQEATATFNSTADREDGHRNFSCLAVLDLMSRGGNIFHKHSAPKMLEIYEPVSDSQ
notes: Bought from R&D Systems; soluble immunoadhesin; also called hICAM2-Fc; hICAM-2-Fc; not shown: human IgG Fc (detected with anti-human IgG Fc antibody)
B3: human DC-SIGN (receptor, UniProt Q9NNX6 1-404, looked up)
chain: MSDSKEPRLQQLGLLEEEQLRGLGFRQTRGYKSLAGCLGHGPLVLQLLSFTLLAGLLVQVSKVPSSISQEQSRQDAIYQNLTQLKAAVGELSEKSKLQEIYQELTQLKAAVGELPEKSKLQEIYQELTRLKAAVGELPEKSKLQEIYQELTWLKAAVGELPEKSKMQEIYQELTRLKAAVGELPEKSKQQEIYQELTRLKAAVGELPEKSKQQEIYQELTRLKAAVGELPEKSKQQEIYQELTQLKAAVERLCHPCPWEWTFFQGNCYFMSNSQRNWHDSITACKEVGAQLVVIKSAEEQNFLQLQSSRSNRFTWMGLSDLNQEGTWQWVDGSPLLPSFKQYWNRGEPNNVGEEDCAEFSGNGWNDDKCNLAKFWICKKSAASCSRDEEQFLSPAPATPNPPPA
notes: whole, on cells; Positive control cell line; also called hDC-SIGN; CD209

Columns and labels:
[1] = biological target: T2, recombinant human IgG1 Fc (human, UniProt P01857-1 100-330 = IgG part); test: flow cytometry on BHK-PDCS cells, FITC anti-human IgG Fc detection
T2 construct: domain: Fc; Negative control for the ICAM-Fc chimeras; also called hFc
Protocol: (§1) Human ICAM-3 and ICAM-2 binding assay: Adhesion of human ICAM-3 or ICAM-2 to pDC-SIGN proteins was assessed with BHK-PDCS and BHK-21 cells by measuring detectable cells that bound the soluble immunoadhesins through FACS analysis. 3T3-HDCS cells were used as the positive control. Cells (1˜3×10⁵ per sample) were resuspended in 100 μL PBS containing 2% FBS and incubated for 60 min at 4° C. with 1 μg of recombinant human IgG₁ Fc (hFc), human ICAM-3-Fc (hICAM3-Fc) chimera or hICAM2-Fc chimera (R&D Systems, Minneapolis, Minn.) in the presence or absence of mannan (100 μg/mL) or ethylene glycol tetraacetic acid (EGTA, 10 mM). Cells were then washed twice and incubated for another 45 min at 4° C. with 0.5 μg of FITC-labeled anti-human IgG Fc antibody (KPL, Inc., Gaithersburg, Md.) in 100 μL PBS containing 2% FBS. Fluorescence was monitored using FACSAria (BD Biosciences, San Jose, Calif.).

human ICAM-3-Fc chimera [2] = biological target: T1, human ICAM-3-Fc chimera; test: flow cytometry on BHK-PDCS cells, 1 ug Fc chimera, FITC anti-human IgG Fc
From the text: (§2) FIGS. 8a to 8e show the binding of human ICAM-3 and ICAM-2 immunoadhesins to BHK cells stably expressing pDC-SIGN. FIG. 8a provides the detection of surface expression of pDC-SIGN protein on stable BHK cell lines. BHK-21, and unsorted or sorted BHK-PDCS cell lines were stained with anti-pDC-SIGN antibody and FITC-labeled goat anti-rabbit IgG, respectively, and analyzed by flow cytometry. Dashed open histograms represented the background staining The expression of pDC-SIGN was indicated by the cross-hatched histograms. Expression of hDC-SIGN on the surface of 3T3-HDCS cell line was also verified by staining with a hDC-SIGN monoclonal antibody (right, bottom panel). FIGS. 8b to 8e illustrate the calcium-dependent binding of human ICAM-3 and ICAM-2 immunoadhesins to BHK-PDCS and 3T3-HDCS cells. Dashed open histograms represent cells staining only with a FITC labeled anti-human IgG Fc antibody. Results are representative of three independent experiments. Data are expressed as histogram analysis of 10,000 cells.
(§3) Human ICAM-3 and ICAM-2 binding assay: Adhesion of human ICAM-3 or ICAM-2 to pDC-SIGN proteins was assessed with BHK-PDCS and BHK-21 cells by measuring detectable cells that bound the soluble immunoadhesins through FACS analysis. 3T3-HDCS cells were used as the positive control. […] Fluorescence was monitored using FACSAria (BD Biosciences, San Jose, Calif.).

human ICAM-2-Fc chimera = biological target: B2; test: as above
From the text: as §2, §3

human DC-SIGN = biological target: B3; test: flow cytometry histograms, FIGS. 8b-8e
From the text: as §2, §3

[3] = biological target: T2, recombinant human IgG1 Fc; test: flow cytometry on 3T3-HDCS cells, FITC anti-human IgG Fc detection
Protocol: as §1

human ICAM-3-Fc chimera [4] = biological target: T1, human ICAM-3-Fc chimera; test: flow cytometry on 3T3-HDCS cells, 1 ug Fc chimera, FITC anti-human IgG Fc
From the text: as §2, §3

B1: no binding (tested: 1 ug in 100 uL) [1]; binds (human ICAM-3-Fc chimera [2]); binds (human ICAM-2-Fc chimera).

B2: binds (human DC-SIGN).

B3: no binding (tested: 1 ug in 100 uL) [3]; binds (human ICAM-3-Fc chimera [4]).
